Data published in article PMC10397247.
Each block holds one binder with its values, some of them ahead of it.

Tests used:
4H3907-bN = target: T1, 4H3907-bN; assay: two-hybrid library CCNG1;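 further: natural log of median RNA to DNA barcode read ratio; higher means stronger binding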
T1 chain: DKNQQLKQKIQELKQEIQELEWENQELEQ

4H4038-bN = target: T2, 4H4038-bN; assay: two-hybrid library CCNG1;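 further: natural log of median RNA to DNA barcode read ratio; higher means stronger binding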
T2 chain: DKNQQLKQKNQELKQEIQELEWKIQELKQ

4H3592-bN = target: T3, 4H3592-bN; assay: two-hybrid library CCNG1;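 further: natural log of median RNA to DNA barcode read ratio; higher means stronger binding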
T3 chain: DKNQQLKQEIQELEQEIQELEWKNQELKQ

4H3601-bN = target: T4, 4H3601-bN; assay: two-hybrid library CCNG1;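 further: natural log of median RNA to DNA barcode read ratio; higher means stronger binding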
T4 chain: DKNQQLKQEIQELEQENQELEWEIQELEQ

4H3015-AA = target: T5, 4H3015-AA; assay: two-hybrid library CCmax; settings: mean of both orientations
T5 chain: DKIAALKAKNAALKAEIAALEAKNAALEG

GCN2_T = assay: two-hybrid library CCmax; settings: mean of both orientations
4H2330-AA = target: T6, 4H2330-AA; assay: two-hybrid library CCmax; settings: mean of both orientations
T6 chain: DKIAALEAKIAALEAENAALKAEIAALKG

4H452-AA = target: T7, 4H452-AA; assay: two-hybrid library CCmax; settings: mean of both orientations
T7 chain: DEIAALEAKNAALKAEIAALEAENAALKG

4H2592-AA = target: T8, 4H2592-AA; assay: two-hybrid library CCmax; settings: mean of both orientations
T8 chain: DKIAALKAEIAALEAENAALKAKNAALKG

4H2165-AA = target: T9, 4H2165-AA; assay: two-hybrid library CCmax; settings: mean of both orientations
T9 chain: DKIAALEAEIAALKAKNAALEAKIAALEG

4H2124-AA = target: T10, 4H2124-AA; assay: two-hybrid library CCmax; settings: mean of both orientations
T10 chain: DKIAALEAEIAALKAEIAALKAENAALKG

4H2466-AA = target: T11, 4H2466-AA; assay: two-hybrid library CCmax; settings: mean of both orientations
T11 chain: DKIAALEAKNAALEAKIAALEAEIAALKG

4H406-AA = target: T12, 4H406-AA; assay: two-hybrid library CCmax; settings: mean of both orientations
T12 chain: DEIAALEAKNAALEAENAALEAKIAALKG

4H2253-AA = target: T13, 4H2253-AA; assay: two-hybrid library CCmax; settings: mean of both orientations
T13 chain: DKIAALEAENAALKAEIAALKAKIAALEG

4H56-AA = target: T14, 4H56-AA; assay: two-hybrid library CCmax; settings: mean of both orientations
T14 chain: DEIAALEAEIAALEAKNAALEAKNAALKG

4H1930-AA = target: T15, 4H1930-AA; assay: two-hybrid library CCmax; settings: mean of both orientations
T15 chain: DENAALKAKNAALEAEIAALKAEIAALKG

4H1821-AA = target: T16, 4H1821-AA; assay: two-hybrid library CCmax
T16 chain: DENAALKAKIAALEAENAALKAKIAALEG

4H347-AA = target: T17, 4H347-AA; assay: two-hybrid library CCmax; settings: mean of both orientations
T17 chain: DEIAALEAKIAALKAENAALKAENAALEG

4H3438-AA = target: T18, 4H3438-AA; assay: two-hybrid library CCmax; settings: mean of both orientations
T18 chain: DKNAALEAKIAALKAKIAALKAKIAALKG

4H3073-AA = target: T19, 4H3073-AA; assay: two-hybrid library CCmax; settings: mean of both orientations
T19 chain: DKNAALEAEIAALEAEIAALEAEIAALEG

4H_BCR = target: T20, 4H_BCR; assay: two-hybrid library CCmax; settings: mean of both orientations
T20 chain: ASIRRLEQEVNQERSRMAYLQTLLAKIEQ

4H_GCN4 = assay: two-hybrid library CCmax
Chain of 4H_GCN4 (chain, as listed by the source): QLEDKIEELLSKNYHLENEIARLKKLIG

4H2774-AA = target: T21, 4H2774-AA; assay: two-hybrid library CCmax; settings: mean of both orientations
T21 chain: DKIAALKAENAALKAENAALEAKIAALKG

4H2732-AA = target: T22, 4H2732-AA; assay: two-hybrid library CCmax; settings: mean of both orientations
T22 chain: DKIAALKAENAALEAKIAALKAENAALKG

4H249-AA = target: T23, 4H249-AA; assay: two-hybrid library CCmax; settings: mean of both orientations
T23 chain: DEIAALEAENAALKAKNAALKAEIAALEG

4H3001-AA = target: T24, 4H3001-AA; assay: two-hybrid library CCmax
T24 chain: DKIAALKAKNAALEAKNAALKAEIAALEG

4H1828-AA = target: T25, 4H1828-AA; assay: two-hybrid library CCmax; settings: mean of both orientations
T25 chain: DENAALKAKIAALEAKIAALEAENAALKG

4H2343-AA = target: T26, 4H2343-AA; assay: two-hybrid library CCmax; settings: mean of both orientations
T26 chain: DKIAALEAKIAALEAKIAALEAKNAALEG

4H_APH = target: T27, 4H_APH; assay: two-hybrid library CCmax; settings: mean of both orientations
T27 chain: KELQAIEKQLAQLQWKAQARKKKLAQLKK

4H2931-AA = target: T28, 4H2931-AA; assay: two-hybrid library CCmax; settings: mean of both orientations
T28 chain: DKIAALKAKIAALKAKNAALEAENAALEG

4H1629-bN = target: T29, 4H1629-bN; assay: two-hybrid library CCNG1
T29 chain: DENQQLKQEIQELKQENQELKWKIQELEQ

4H3172-bN = target: T30, 4H3172-bN; assay: two-hybrid library CCNG1
T30 chain: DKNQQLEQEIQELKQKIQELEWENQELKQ

4H3638-bN = target: T31, 4H3638-bN; assay: two-hybrid library CCNG1
T31 chain: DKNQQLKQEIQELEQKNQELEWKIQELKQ

4H906-bN = target: T32, 4H906-bN; assay: two-hybrid library CCNG1
T32 chain: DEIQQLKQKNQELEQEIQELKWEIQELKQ

4H850-bN = target: T33, 4H850-bN; assay: two-hybrid library CCNG1
T33 chain: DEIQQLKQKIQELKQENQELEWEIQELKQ

4H3974-bN = target: T34, 4H3974-bN; assay: two-hybrid library CCNG1
T34 chain: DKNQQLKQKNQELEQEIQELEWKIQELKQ

4H3631-bN = target: T35, 4H3631-bN; assay: two-hybrid library CCNG1
T35 chain: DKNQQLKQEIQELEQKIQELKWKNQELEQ

4H3817-bN = target: T36, 4H3817-bN; assay: two-hybrid library CCNG1
T36 chain: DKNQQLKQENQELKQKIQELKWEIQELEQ

4H619-bN = target: T37, 4H619-bN; assay: two-hybrid library CCNG1
T37 chain: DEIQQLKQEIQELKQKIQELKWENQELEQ

4H584-bN = target: T38, 4H584-bN; assay: two-hybrid library CCNG1
T38 chain: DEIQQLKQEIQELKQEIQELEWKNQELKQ

4H1985-bN = target: T39, 4H1985-bN; assay: two-hybrid library CCNG1
T39 chain: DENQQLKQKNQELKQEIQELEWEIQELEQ

4H570-bN = target: T40, 4H570-bN; assay: two-hybrid library CCNG1
T40 chain: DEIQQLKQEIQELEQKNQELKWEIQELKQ

4H3414-bN = target: T41, 4H3414-bN; assay: two-hybrid library CCNG1
T41 chain: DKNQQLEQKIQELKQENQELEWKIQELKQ

4H2839-bN = target: T42, 4H2839-bN; assay: two-hybrid library CCNG1
T42 chain: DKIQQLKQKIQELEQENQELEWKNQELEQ

4H1710-bN = target: T43, 4H1710-bN; assay: two-hybrid library CCNG1
T43 chain: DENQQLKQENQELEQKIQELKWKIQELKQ

4H3129-bN = target: T44, 4H3129-bN; assay: two-hybrid library CCNG1
T44 chain: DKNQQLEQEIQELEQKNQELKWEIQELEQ

4H1804-bN = target: T45, 4H1804-bN; assay: two-hybrid library CCNG1
T45 chain: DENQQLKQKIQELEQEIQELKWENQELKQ

4H2586-bN = target: T46, 4H2586-bN; assay: two-hybrid library CCNG1
T46 chain: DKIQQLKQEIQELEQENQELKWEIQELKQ

4H3858-bN = target: T47, 4H3858-bN; assay: two-hybrid library CCNG1
T47 chain: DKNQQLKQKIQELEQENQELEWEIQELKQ

4H1899-bN = target: T48, 4H1899-bN; assay: two-hybrid library CCNG1
T48 chain: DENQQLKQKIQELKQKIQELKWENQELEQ

4H1449-bN = target: T49, 4H1449-bN; assay: two-hybrid library CCNG1
T49 chain: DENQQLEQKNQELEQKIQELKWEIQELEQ

4H1544-bN = target: T50, 4H1544-bN; assay: two-hybrid library CCNG1
T50 chain: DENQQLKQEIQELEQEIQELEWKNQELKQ

4H3613-bN = target: T51, 4H3613-bN; assay: two-hybrid library CCNG1
T51 chain: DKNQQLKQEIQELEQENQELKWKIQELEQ

4H3628-bN = target: T52, 4H3628-bN; assay: two-hybrid library CCNG1
T52 chain: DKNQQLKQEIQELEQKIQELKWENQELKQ

B3: 4H1629-bN (peptide)
chain: DENQQLKQEIQELKQENQELKWKIQELEQ
interaction score (4H1629-bN): 1.42
interaction score (4H3172-bN): -0.119
interaction score (4H3638-bN): -1.43
interaction score (4H906-bN): -1.39
interaction score (4H850-bN): -0.949
interaction score (4H3974-bN): -0.785
interaction score (4H3631-bN): -0.59
interaction score (4H3817-bN): -2.51
interaction score (4H619-bN): -0.476
interaction score (4H584-bN): -0.0341
interaction score (4H1985-bN): -0.575
interaction score (4H570-bN): -2.4
interaction score (4H3414-bN): -0.735
interaction score (4H2839-bN): -1.72
interaction score (4H1710-bN): -0.768
interaction score (4H3129-bN): -0.732
interaction score (4H1804-bN): -2.35
interaction score (4H2586-bN): -1.65

B4: 4H1449-bN (peptide)
chain: DENQQLEQKNQELEQKIQELKWEIQELEQ
interaction score (4H1629-bN): -0.745
interaction score (4H3172-bN): -0.588
interaction score (4H3638-bN): -1.08
interaction score (4H3858-bN): -0.776
interaction score (4H1899-bN): -0.773
interaction score (4H906-bN): -1.69
interaction score (4H850-bN): -1.83
interaction score (4H3974-bN): 1.15
interaction score (4H1449-bN): -0.847
interaction score (4H3631-bN): -0.391
interaction score (4H3817-bN): -1.76
interaction score (4H619-bN): -0.984
interaction score (4H584-bN): -0.471
interaction score (4H1544-bN): -1.72
interaction score (4H1985-bN): -1.29
interaction score (4H570-bN): -0.581
interaction score (4H3414-bN): -0.742
interaction score (4H1710-bN): -0.246
interaction score (4H3613-bN): -1.42
interaction score (4H3129-bN): -2.48
interaction score (4H1804-bN): -2.5
interaction score (4H3628-bN): -0.461

Now from value to binder:

interaction score (4H3907-bN): -1.47
interaction score (4H4038-bN): -0.372
interaction score (4H3592-bN): -0.397
interaction score (4H3601-bN): -0.0551
B1: 4H3592-bN (peptide)
chain: DKNQQLKQEIQELEQEIQELEWKNQELKQ

interaction score (4H3015-AA): -1.83
interaction score (GCN2_T): -1.68
interaction score (4H2330-AA): -0.746
interaction score (4H452-AA): -1.25
interaction score (4H2592-AA): -1.24
interaction score (4H2165-AA): -1.28
interaction score (4H2124-AA): -1.19
interaction score (4H2466-AA): -1.51
interaction score (4H406-AA): -1.34
interaction score (4H2253-AA): -0.989
interaction score (4H56-AA): -1.44
interaction score (4H1930-AA): -1.43
interaction score (4H1821-AA): 1.48
interaction score (4H347-AA): -1.26
interaction score (4H3438-AA): -1.77
interaction score (4H3073-AA): -1.15
interaction score (4H_BCR): -1.69
interaction score (4H_GCN4): -1.85
interaction score (4H2774-AA): -1.53
interaction score (4H2732-AA): -1.04
interaction score (4H249-AA): -1.68
interaction score (4H3001-AA): -1.51
interaction score (4H1828-AA): -2.13
interaction score (4H2343-AA): -1.42
interaction score (4H_APH): -2.19
interaction score (4H2931-AA): -1.77
B2: 4H1821-AA (peptide)
chain: DENAALKAKIAALEAENAALKAKIAALEG
